Measurements: paper PMC10625650, “The WW domain of IQGAP1 binds directly to the p110α catalytic subunit of PI 3-kinase” (The Biochemical journal, 2023)

Target: T1, full-length untagged human p110α (catalytic subunit of PI 3-kinase) (human, UniProt P42336 1-1068, [35S]-methionine label)
T1 construct: human p110α (PIK3CA), full length, untagged; also called native p110α; unaltered wild-type p110α
Experiment: pull-down; 25 μg GST or GST fusion protein purified from bacteria, bound to glutathione-Sepharose beads; 1 pmol 35S-labelled in vitro translated protein (partially purified by ammonium sulfate precipitation); binding buffer 20 mM Tris–HCl pH 7.1, 125 mM KOAc, 0.5 mM EDTA, 1 mM DTT, 0.1% Tween20, 12.5% glycerol; sedimentation, SDS–PAGE, autoradiography or phosphorimaging; percent binding against input
Settings: one partner purified

T1 sequence (P42336 whole entry): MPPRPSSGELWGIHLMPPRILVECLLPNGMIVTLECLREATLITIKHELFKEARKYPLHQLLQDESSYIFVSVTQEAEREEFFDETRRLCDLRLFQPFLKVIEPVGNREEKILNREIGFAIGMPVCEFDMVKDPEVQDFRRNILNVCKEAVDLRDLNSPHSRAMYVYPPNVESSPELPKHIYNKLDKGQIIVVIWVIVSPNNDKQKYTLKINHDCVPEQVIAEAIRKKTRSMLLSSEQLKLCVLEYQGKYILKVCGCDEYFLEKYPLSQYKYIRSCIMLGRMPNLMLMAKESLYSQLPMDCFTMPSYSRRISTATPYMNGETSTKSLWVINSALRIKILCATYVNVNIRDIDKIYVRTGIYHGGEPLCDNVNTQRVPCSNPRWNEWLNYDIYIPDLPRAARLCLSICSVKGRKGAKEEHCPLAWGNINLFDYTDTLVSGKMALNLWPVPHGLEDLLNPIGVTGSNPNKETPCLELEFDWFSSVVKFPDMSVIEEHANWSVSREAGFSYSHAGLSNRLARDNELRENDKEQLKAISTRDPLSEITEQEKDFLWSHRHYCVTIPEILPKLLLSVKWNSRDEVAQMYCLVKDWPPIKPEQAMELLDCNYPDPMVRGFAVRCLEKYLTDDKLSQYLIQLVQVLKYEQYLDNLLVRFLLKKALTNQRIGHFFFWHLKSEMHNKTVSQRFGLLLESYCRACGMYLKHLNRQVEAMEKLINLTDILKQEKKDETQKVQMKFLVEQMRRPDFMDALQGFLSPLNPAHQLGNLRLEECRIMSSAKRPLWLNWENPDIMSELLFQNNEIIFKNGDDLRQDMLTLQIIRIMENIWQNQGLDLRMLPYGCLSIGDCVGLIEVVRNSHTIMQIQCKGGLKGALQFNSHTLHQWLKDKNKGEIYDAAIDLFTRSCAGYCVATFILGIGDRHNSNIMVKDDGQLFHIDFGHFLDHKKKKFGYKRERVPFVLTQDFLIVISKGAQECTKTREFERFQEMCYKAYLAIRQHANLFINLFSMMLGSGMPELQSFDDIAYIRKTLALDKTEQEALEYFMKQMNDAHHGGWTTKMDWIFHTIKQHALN

B1: GST-WW (WW domain of human IQGAP1 fused to GST) (domain or fragment, UniProt P46940 679-719, looked up)
chain: GDNNSKWVKHWVKGGYYYYHNLETQEGGWDEPPNFVQNSMQ
notes: human IQGAP1, residues 679-719 holding the WW domain (the results name the WW domain as residues 684-710); in plasmid pGEXLB; also called GST-WW fusion protein; wild-type GST-WW; source: expressed in bacteria, purified on glutathione-Sepharose; not shown: GST (Schistosoma japonicum), N-terminal, kept
Kd: 130 µM
